These results are taken from article PMC7080496.

Experiment [1] concerns the target Adenosine A2A receptor (A2AAR), human, residues 1 to 316, with the M1A/M4T mutation, reconstituted in rHDLs (nanodiscs) (human) (UniProt P29274).
Experiment [2] shares this target. The source holds these as a separate data set.
The target is the same in experiment [3]. The source holds these as a separate data set.

Adenosine A2A receptor (A2AAR), human, residues 1 to 316, with the M1A/M4T mutation, reconstituted in rHDLs (nanodiscs) (human), sequence (P29274 1-316 M1A/M4T): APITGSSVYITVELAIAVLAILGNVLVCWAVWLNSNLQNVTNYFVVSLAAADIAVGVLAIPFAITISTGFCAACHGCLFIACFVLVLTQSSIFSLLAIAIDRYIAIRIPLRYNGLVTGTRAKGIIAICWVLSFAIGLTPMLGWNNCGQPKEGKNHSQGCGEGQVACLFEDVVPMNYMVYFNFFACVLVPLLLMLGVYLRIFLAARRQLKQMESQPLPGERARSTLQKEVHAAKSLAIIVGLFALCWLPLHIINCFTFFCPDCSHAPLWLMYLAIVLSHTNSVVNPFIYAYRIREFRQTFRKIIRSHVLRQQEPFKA
heterotrimeric G protein consisting of human Gαs, bovine Gβ1, and human Gγ2, sequence (P63092 whole entry): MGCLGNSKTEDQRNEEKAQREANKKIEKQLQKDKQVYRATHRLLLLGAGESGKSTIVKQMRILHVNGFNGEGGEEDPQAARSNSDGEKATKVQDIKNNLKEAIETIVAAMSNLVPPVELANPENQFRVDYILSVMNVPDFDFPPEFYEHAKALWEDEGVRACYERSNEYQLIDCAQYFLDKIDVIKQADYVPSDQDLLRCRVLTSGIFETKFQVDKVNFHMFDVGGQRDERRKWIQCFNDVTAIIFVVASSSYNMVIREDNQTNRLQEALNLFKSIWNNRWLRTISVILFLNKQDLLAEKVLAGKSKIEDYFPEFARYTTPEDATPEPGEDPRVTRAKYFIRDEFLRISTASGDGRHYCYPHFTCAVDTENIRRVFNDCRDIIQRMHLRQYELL
heterotrimeric G protein consisting of human Gαs, bovine Gβ1, and human Gγ2, sequence (P62871 whole entry): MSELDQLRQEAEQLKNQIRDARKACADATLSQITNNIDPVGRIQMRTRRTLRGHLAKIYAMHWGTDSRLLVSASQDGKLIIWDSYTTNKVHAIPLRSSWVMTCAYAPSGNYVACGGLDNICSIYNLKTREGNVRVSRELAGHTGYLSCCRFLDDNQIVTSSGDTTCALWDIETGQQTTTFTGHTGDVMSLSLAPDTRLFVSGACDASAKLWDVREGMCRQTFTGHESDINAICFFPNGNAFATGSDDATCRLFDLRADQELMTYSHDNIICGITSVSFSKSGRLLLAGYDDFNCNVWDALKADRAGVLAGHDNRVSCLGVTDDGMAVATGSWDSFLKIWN
heterotrimeric G protein consisting of human Gαs, bovine Gβ1, and human Gγ2, sequence (P59768 whole entry): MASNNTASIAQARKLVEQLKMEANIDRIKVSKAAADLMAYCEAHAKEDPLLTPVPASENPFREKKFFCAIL

“heterotrimeric G protein consisting of human Gαs, bovine Gβ1, and human Gγ2 (from UniProt P63092 1-394; P62871 1-340; P59768 1-71) (complex)” registered a GDP/GTP reaction rate, A2AAR in rHDL(DHA) against A2AAR in rHDL(ARA) in experiment [1] of 1.7 fold. In experiment [2], the initial [35S]-GTPγS binding rate, A2AAR in rHDL(ARA) against A2AAR in rHDL(POPC/POPG), full agonist was 1.1 times and the initial [35S]-GTPγS binding rate, A2AAR in rHDL(DHA) against A2AAR in rHDL(POPC/POPG), full agonist worked out at 1.88 times. In addition, in experiment [3], the initial [35S]-GTPγS binding rate, A2AAR in rHDL(DHA) in which DHA constitutes 15% of the acyl chains, against A2AAR in rHDL(POPC/POPG) stood at 1.29 times.
